Where only a bound is given, the exact number is not on record here.

Results on one molecule are retold here after patent publication US20210017287A1 (published 2021).

The target of assay [1] is T1, TNFRSF25-Fc fusion protein (UniProt Q93038 25-199, limits assumed, biotinylated in the capture ELISA (site not stated)).
T1 construct: also called TNFRSF25-Fc protein; biotinylated antigen protein; not shown: Fc part
T1 sequence (looked up): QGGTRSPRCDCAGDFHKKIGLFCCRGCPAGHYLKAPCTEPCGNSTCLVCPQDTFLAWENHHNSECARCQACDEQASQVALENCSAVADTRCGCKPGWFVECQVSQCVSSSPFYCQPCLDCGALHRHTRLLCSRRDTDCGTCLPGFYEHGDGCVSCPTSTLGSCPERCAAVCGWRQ
The assay can be described thus: single point capture ELISA, scFv captured by anti-c-myc, biotinylated antigen. On the procedure: (§1) Primary screening of the scFv library: The primary screen consisted of a single point ELISA (SPE) assay, which was carried out using periplasmic extract (PE) of bacteria grown in 96-well (deep well) plates. Briefly, this capture ELISA involved coating individual wells of a 96-well Maxisorp Immunoplate with anti-c-myc antibody in coating buffer (200 mM Na₂CO₃/NaHCO₃) at pH 9.2 overnight at 4° C. The next day, the plate was blocked with Casein for 1 hour at room temperature. scFv PE was then added to the plate and incubated at room temperature for 1 hour. After washing, biotinylated antigen protein was added to the well and the mixture was incubated for 1 hour at room temperature. This was followed by incubation with streptavidin-horseradish peroxidase (HRP) conjugate for 1 hour at room temperature. HRP activity was detected with tetra-methyl-benzidine (TMB) substrate, and the reaction was quenched with 2M HCl. Plates were read at 450 nm. […] The scFv protein concentration was determined by comparing the ELISA signals with signals generated by the reference scFv. The binding assay was repeated once more for all positive variants under normalized scFv concentrations in order to determine the relative binding affinity of the mutant scFv and the parental antibody. Selected scFv hits displaying improved binding were re-formulated to IgG1 and tested in a caspase-3 assay as described below.
For orientation: ELISA stands for enzyme-linked immunosorbent assay.

Assay [2] addresses T1, TNFRSF25-Fc fusion protein. The assay is described as follows: binding ELISA of scFv clones on TNFRSF25-Fc (FIG. 10).
Assay [3] has as its target T1, TNFRSF25-Fc fusion protein. The assay is described as follows: capture ELISA of scFv, against W3072-z4C12-scFv. On the procedure:
as §1

B1: 42G2 (scFv, V domains shown)
VH: EVQLVESGGGLSQPGNSLQLSCEASGFTFSNHDLNWVRQAPGKGLEWVAYISSASGLISYADAVRGRFTISRDNAKNSLFLQMNNLKSEDTAMYYCARDPPYSGLYALDFWGQGTQVTVSS
VL: QPVLTQSPSASASLSGSVKLTCTLSSELSWYTIVWYQQRPDKAPKYVMYLKSDGSHSKGDGIPDRFSGSSSGAHRYLSISNVQSEDDATYFCGAGYTLAGQYGWVFGSGTKVTVL
notes: scFv
With B1, the OD450 in assay [1] was 3.19 OD450. The molecule also had a Bmax in assay [2] of 0.447. The “fold increase in ELISA signal” value in assay [3] was greater than 10 fold.
